According to patent US20230192861A1 (ABL BIO, published 2023):
Residue numbers refer to the chain shown, from its start. Names and notes keep the numbering of the source. Blank lines part the entries; values can stand above or below the binder they belong to.

Tests used:
[1] = target: PD-L1 (Biacore, Example 1.6) (UniProt Q9NZQ7 19-238, limits assumed); assay: Biacore
[2] = target: T1, PD-L1 expressed on RKO cells (human, UniProt Q9NZQ7 19-290); assay: FACS on RKO cells (express both B7-H3 and PD-L1), FITC anti-human IgG
T1 construct: whole, on cells; RKO cells carry both PD-L1 and B7-H3; also called PD-L1 expressed on cell surface

[3] = target: T1, PD-L1 expressed on RKO cells; assay: as above; remark: listed apart in the source
[4] = target: T2, human B7-H3 expressed on the surface of human cancer cell lines (human, UniProt Q5ZPR3 29-534); assay: FACS on RKO cells (express both B7-H3 and PD-L1), FITC anti-human IgG; the signal is not split between the two targets
T2 construct: whole, on cells; also called cell surface expression B7-H3
T2 sequence (looked up): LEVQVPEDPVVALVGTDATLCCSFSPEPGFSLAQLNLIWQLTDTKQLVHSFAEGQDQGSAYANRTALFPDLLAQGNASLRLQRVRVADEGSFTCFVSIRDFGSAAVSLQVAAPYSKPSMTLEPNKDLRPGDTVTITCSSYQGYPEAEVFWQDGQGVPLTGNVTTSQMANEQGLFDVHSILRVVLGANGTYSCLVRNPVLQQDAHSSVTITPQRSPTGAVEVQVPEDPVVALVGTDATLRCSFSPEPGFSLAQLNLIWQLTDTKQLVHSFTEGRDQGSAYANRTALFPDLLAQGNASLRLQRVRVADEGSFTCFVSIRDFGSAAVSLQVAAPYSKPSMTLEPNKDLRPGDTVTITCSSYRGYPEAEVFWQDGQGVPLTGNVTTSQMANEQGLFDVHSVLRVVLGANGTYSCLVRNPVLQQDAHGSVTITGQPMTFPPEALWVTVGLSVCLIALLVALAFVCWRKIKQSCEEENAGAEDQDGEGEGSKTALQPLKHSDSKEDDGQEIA

[5] = target: T1, PD-L1 expressed on RKO cells; assay: as above
[6] = target: T2, human B7-H3 expressed on the surface of …; assay: FACS on RKO cells
Procedure: (§1) To evaluate the antigen binding property, 1+1 format bispecific antibodies were analyzed for its binding to mammalian expressed both B7-H3 and PD-L1 by FACS as compared to monospecific antibodies. Briefly, RKO cells (human colon carcinoma cell line) were incubated with antibodies. After wash by FACS buffer (1% BSA in PBS), the FITC-anti-human IgG antibody was added to each well and incubated at 4° C. for 1 hour. The MFI of FITC was evaluated by FACS Caliber. The results are described in FIG. 18.

[7] = target: T1, PD-L1 expressed on RKO cells; assay: FACS on RKO cells
Procedure: as §1

T1 sequence (Q9NZQ7 19-290): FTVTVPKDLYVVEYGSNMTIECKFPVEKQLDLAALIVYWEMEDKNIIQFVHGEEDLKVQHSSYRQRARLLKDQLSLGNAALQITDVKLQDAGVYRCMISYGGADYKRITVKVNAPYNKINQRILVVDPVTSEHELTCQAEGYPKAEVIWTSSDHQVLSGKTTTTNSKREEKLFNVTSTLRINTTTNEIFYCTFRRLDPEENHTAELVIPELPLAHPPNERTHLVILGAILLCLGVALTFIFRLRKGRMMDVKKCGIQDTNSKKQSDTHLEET
Sequence of PD-L1 (Biacore, Example 1.6) (Q9NZQ7 19-238 limits assumed): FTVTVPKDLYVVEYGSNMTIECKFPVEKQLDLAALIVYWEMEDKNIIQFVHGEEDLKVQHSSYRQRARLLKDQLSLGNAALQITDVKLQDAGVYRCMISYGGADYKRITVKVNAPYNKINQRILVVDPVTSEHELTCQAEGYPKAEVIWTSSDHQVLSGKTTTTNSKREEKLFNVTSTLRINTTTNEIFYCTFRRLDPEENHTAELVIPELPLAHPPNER

B1: H12 (antibody, V domains shown)
VH: EVQLVESGGGLVQPGGSLRLSCAASGFTFSSYDMSWVRQAPGKSLEWVATISDAGGYIYYSDSVKGRFTISRDNAKNSLYLQMNSLRDEDTAVYICAREFGKRYALDYWGQGTTVTVSS
VL: DIQMTQSPSSLSASVGDRVTITCKASQDVTPAVAWYQQKPGKAPKLLIYSTSSRYTGVPSRFSGSGSGTDFTFTISSLQPEDIATYYCQQHYTTPLTFGQGTKLEIK
notes: Humanized anti-PD-L1 antibody; also called WT (H12); WT
- Kd [1]: 6.12 nM
- koff [1]: 0.000436 s⁻¹
- kon [1]: 71200 M⁻¹ s⁻¹

B3: B6xC4I(2+2) (bispecific antibody, human IgG1, kappa, N297A)
chain 1: not shown
chain 2: DIQMTQSPSSLSASVGDRVTITCKASQDVTPAVAWYQQKPGKAPKLLIYSTSSRYTGVPSRFSGSGSGTDFTFTISSLQPEDIATYYCQQHYTTPLTFGQGTKLEIKRTVAAPSVFIFPPSDEQLKSGTASVVCLLNNFYPREAKVQWKVDNALQSGNSQESVTEQDSKDSTYSLSSTLTLSKADYEKHKVYACEVTHQGLSSPVTKSFNRGEC
notes: not the 1+1 format B6xC4I; also called ABLPNB.04; B6xC4I (2+2 format)
- EC50 (read off the curve) [4]: ~1 nM
- EC50 (read off the curve) [5]: ~1 nM

B4: B6xB5(2+2) (bispecific antibody, human IgG1, kappa, N297A)
chain 1: not shown
chain 2: B3 chain 2
notes: also called ABLPNB.03; B6xB5 (2+2 format)
- EC50 (read off the curve) [4]: ~1 nM
- EC50 (read off the curve) [5]: ~1 nM

The next lines start with the values.

- Kd [1]: 4.25 nM
- koff [1]: 0.000418 s⁻¹
- kon [1]: 98300 M⁻¹ s⁻¹
- EC50 (read off the curve) [2]: ~1 nM
- EC50 (read off the curve) [3]: ~0.2 nM
B2: B6 (anti-PD-L1) (antibody, V domains shown)
VH: B1 VH with S61R, F100L, G101P, K102W
VL: B1 VL
notes: Engineered anti-PD-L1 clone

- binding result [6]: binds
- binding result [7]: binds
B5: ABLPNB.09: bispecific antibody comprising the anti-PD-L1 B6 clone in (HC + LC) form and the anti-B7-H3 C4I clone in scFab-Fc form (bispecific antibody, human IgG1, kappa, lambda)
heavy: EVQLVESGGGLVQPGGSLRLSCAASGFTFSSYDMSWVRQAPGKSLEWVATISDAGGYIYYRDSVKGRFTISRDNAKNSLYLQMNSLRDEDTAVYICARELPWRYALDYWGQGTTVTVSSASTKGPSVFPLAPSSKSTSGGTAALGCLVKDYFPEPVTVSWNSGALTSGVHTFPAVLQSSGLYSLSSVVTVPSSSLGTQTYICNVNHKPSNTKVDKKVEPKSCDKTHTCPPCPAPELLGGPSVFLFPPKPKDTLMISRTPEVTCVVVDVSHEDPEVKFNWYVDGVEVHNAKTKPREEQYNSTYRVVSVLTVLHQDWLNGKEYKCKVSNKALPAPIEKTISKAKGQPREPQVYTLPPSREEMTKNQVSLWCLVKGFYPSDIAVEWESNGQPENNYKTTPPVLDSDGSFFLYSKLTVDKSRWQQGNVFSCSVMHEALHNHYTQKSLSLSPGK
light: B3 chain 2
chain: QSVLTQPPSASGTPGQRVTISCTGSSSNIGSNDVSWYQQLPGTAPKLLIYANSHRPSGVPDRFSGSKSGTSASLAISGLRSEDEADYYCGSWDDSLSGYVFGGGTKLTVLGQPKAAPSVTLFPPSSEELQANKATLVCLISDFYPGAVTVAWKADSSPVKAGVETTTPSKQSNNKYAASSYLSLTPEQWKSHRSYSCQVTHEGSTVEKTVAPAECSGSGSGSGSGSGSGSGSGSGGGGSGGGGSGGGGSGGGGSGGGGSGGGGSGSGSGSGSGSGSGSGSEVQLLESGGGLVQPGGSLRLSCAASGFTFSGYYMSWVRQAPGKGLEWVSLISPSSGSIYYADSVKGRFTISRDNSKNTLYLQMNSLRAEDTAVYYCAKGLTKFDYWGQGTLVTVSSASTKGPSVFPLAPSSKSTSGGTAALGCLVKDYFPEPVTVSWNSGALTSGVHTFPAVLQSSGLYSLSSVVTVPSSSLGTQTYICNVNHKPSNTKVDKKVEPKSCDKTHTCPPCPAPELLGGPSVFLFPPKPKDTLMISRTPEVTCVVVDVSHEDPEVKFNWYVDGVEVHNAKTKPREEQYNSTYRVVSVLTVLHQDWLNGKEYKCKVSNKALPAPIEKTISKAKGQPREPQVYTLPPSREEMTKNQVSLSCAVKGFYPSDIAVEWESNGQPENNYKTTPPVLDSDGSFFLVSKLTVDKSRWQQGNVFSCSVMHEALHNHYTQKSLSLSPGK
notes: Human IgG1, knobs-into-hole; also called B6xC4I (1+1 format)
